Where “and” joins values, the source holds several entries; their conditions need not be identical. Equal values may be shown once.

Data set [1] deals with T1, O=[N+]([O-])c1ccc(O[C@@H]2O[C@H](CO)[C@@H](O)[C@H](O)[C@@H]2O)cc1.
T1 construct: full length, 594 residues, no secretion signal; C-terminal non-cleavable His6 tag (pNIC-CH2), E. coli BL21(DE3) T1R; synthetic gene; ESI-MS 66824 g/mol; homotrimer ~200 kDa; N-terminus MTIDSSGY from primer
The data set is described as follows: purified protein. The format is biochemical, Opitutaceae bacterium. The following applies: 50 mM sodium phosphate pH 6.0, 40 °C, 10 min, apparent.

Data set [2] addresses exo-β-1,4-mannosidase from Opitutaceae bacterium strain TAV5 (Op5Man5) (Opitutaceae bacterium strain TAV5). The data set is described as follows: cross-linking; glutaraldehyde 0.4% w/v, protein 0.2 mg/ml, 37 °C, 0 to 60 min, SDS-PAGE (15%).
For data set [3] the target is unchanged. Briefly: crystal structure; crystals from 0.1 M phosphorus citrate pH 4.2, 30% ethanol, 5% PEG 1000; space group P212121; 2.2 Å.
The target is the same in data set [4]. The data set is described as follows: cryo-EM structure; single particle cryo-EM at pH 7.5 of pooled SEC fractions with the trimeric species, 0.12 mg/ml; 3.7 Å map.
Data set [5] has the same target. The data set is described as follows: SEC; Superdex 200 10/300 GL, 20 mM Tris-HCl pH 8.0 and 8.5 with 300 mM NaCl, 4 °C, standard curve of reference proteins. For orientation: In gel filtration, larger molecules generally elute earlier.
The target is the same in data set [6]. The data set is described as follows: SEC; Superdex 200 10/300 GL, 20 mM HEPES pH 7.5 with 300 mM NaCl, 4 °C, standard curve of reference proteins.
The target is the same in data set [7]. Briefly: SEC; Superdex 200 10/300 GL, 20 mM buffer with 300 mM NaCl, pH 5.5-6.5 (sodium acetate pH 5.5; MES pH 6.0 and 6.5), 4 °C, standard curve of reference proteins.

As for Op5Man5 (Opitutaceae bacterium), in data set [1], the Km (as a rule, the substrate concentration at which the rate is half of its maximum) stood at 1000 ± 130 µM; the kcat (as a rule, the number of substrate molecules converted per active site and unit of time at saturation) was determined as 239 ± 7.7 s⁻¹; the specificity constant (kcat/Km) (in general, the second-order rate constant that governs catalysis at low substrate concentration) came out at 239000 ± 7700 M⁻¹ s⁻¹.
For the substance “exo-β-1,4-mannosidase from Opitutaceae bacterium strain TAV5 (Op5Man5) (enzyme)”, the stoichiometry N (usually a count of units in the complex or per binding partner) in data set [2] is 3 and 6; in data set [3], 3; in data set [4], 3; in data set [5], 3; in data set [6] it was 3 and 6; in data set [7], 3.

The values are drawn from PMC8233224, “Crystal structure of a homotrimeric verrucomicrobial exo-β-1,4-mannosidase active in the hindgut of the wood-feeding termite Reticulitermes flavipes” (Journal of Structural Biology: X, 2021).
